The source of these data is paper doi:10.1101/2024.02.14.580117.

By Kd is commonly meant the free concentration of one partner at which half of the binding sites on the other are occupied at equilibrium, for simple one-to-one binding. Read a low Kd as a tighter complex.

Common to all, as to experiment: EMSA
Data set [1] concerns the target T1, Argonaute 2 (AGO2), loaded with miR-34a (Homo sapiens, UniProt Q9UKV8 1-859).
Data set [2] deals with T1, Argonaute 2 (AGO2), loaded with miR-34a. This is another data set of the same source.
For data set [3] the target is unchanged. This is another data set of the same source.
For data set [4] the target is unchanged. This is another data set of the same source.
For data set [5] the target is unchanged. This is another data set of the same source.

Where two headings read alike, the source gives them in different places.

T1 sequence (Q9UKV8 whole entry): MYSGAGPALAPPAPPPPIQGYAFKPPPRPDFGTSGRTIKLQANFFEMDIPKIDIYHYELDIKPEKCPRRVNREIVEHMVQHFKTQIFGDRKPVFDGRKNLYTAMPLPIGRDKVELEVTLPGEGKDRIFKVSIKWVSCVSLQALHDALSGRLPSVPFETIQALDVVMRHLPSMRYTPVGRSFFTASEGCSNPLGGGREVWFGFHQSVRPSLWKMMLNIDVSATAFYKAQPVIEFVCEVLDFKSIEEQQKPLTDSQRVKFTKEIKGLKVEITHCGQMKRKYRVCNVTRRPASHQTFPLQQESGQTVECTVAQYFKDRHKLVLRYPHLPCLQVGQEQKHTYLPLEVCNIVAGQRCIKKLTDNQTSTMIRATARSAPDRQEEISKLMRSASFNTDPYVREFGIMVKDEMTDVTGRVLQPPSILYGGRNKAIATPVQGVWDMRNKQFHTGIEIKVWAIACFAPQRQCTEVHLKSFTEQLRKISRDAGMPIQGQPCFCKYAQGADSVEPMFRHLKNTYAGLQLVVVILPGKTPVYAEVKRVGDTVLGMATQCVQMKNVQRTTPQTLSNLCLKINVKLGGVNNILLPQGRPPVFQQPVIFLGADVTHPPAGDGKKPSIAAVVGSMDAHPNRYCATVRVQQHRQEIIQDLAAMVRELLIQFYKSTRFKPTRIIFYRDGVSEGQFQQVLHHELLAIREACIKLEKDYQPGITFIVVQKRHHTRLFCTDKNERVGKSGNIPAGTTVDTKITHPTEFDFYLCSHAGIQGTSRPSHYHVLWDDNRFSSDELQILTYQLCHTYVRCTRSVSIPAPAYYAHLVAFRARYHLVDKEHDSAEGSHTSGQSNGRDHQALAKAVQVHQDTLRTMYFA

B1: miR-34a guide / NOTCH1 target (dsRNA)
RNA 1: UGGCAGUGUCUUAGCUGGUUGU
RNA 2: ACUUUUAUUUUACACAGAAACACUGCCU
modifications: 5' phosphate on guide
On to B1, for which the binding result in data set [1] was “binds”.

B2: miR-34a guide / PNUTS target (dsRNA)
RNA 1: UGGCAGUGUCUUAGCUGGUUGU
RNA 2: AAAGUCACACUACAUGCACUGCCU
modifications: 5' phosphate on guide
In data set [2], B2 came in with a Kd of 14.5 ± 2.9 nM.

B3: miR-34a guide / SCRseed target (dsRNA)
RNA 1: UGGCAGUGUCUUAGCUGGUUGU
RNA 2: ACAACCAGCUAUCACACACGGA
modifications: 5' phosphate on guide
For the molecule B3, the binding result in data set [3] is “binds”.

B4: miR-34a guide / DLL1 target (dsRNA)
RNA 1: UGGCAGUGUCUUAGCUGGUUGU
RNA 2: CCGGCCGCCUGCGGCACUGCCU
modifications: 5' phosphate on guide
In data set [2], B4 gave a Kd of 69.2 ± 14.1 nM.

B5: miR-34a guide / WNT1 target (dsRNA)
RNA 1: UGGCAGUGUCUUAGCUGGUUGU
RNA 2: GGAGACCCCUUGUUGCACUGCCC
modifications: 5' phosphate on guide
Take B5: the binding result in data set [1] is “binds”.

B6: miR-34a guide / MTA2 target (dsRNA)
RNA 1: UGGCAGUGUCUUAGCUGGUUGU
RNA 2: GGUACCUGGUUGGGGGAGGGGGGCGUGCACUGCCA
modifications: 5' phosphate on guide
Regarding B6, the Kd in data set [2] stood at 66.1 ± 11.2 nM.

B7: miR-34a guide / SIRT1 target (dsRNA)
RNA 1: UGGCAGUGUCUUAGCUGGUUGU
RNA 2: ACACCCAGCUAGGACCAUUACUGCCA
modifications: 5' phosphate on guide
B7: in data set [4], the affinity, expressed as Kd, was 2.68 ± 0.3 nM.

B8: miR-34a guide / NOTCH2 target (dsRNA)
RNA 1: UGGCAGUGUCUUAGCUGGUUGU
RNA 2: UCAGUGAUGAGGAGGACAACACUGCCU
modifications: 5' phosphate on guide
On to B8, for which, in data set [5], binding was put at a Kd of 496 ± 129 nM.

B9: miR-34a guide / CDK6 target (dsRNA)
RNA 1: UGGCAGUGUCUUAGCUGGUUGU
RNA 2: UACUUUCUGCCACACACUGCCU
modifications: 5' phosphate on guide
The molecule B9 displayed a Kd in data set [2] of 26.9 ± 1.4 nM.

B10: miR-34a guide / HNF4a target (dsRNA)
RNA 1: UGGCAGUGUCUUAGCUGGUUGU
RNA 2: AGGGCCACAUCCCACUGCCA
modifications: 5' phosphate on guide
The molecule B10 came in with a Kd in data set [2] of 38.9 nM.

B11: miR-34a guide / BCL2 target (dsRNA)
RNA 1: UGGCAGUGUCUUAGCUGGUUGU
RNA 2: UCGAAUCAGCUAUUUACUGCCA
modifications: 5' phosphate on guide
For B11, the affinity in data set [2], expressed as Kd, was 8.92 nM.

B12: miR-34a guide / PERFECT target (dsRNA)
RNA 1: UGGCAGUGUCUUAGCUGGUUGU
RNA 2: ACAACCAGCUAAGACACUGCCA
modifications: 5' phosphate on guide
In data set [2], B12 gave a Kd of 1.03 ± 0.46 nM. This Kd lies about 8.7-fold lower than the previous one.
